# Laboratory results as given in article PMC12543323, “IFIT1 is rapidly evolving and exhibits disparate antiviral activities across 11 mammalian orders”.
# T1: human IFIT1 R187H (Homo sapiens, UniProt P09914 1-478, R187H)
# T1 sequence: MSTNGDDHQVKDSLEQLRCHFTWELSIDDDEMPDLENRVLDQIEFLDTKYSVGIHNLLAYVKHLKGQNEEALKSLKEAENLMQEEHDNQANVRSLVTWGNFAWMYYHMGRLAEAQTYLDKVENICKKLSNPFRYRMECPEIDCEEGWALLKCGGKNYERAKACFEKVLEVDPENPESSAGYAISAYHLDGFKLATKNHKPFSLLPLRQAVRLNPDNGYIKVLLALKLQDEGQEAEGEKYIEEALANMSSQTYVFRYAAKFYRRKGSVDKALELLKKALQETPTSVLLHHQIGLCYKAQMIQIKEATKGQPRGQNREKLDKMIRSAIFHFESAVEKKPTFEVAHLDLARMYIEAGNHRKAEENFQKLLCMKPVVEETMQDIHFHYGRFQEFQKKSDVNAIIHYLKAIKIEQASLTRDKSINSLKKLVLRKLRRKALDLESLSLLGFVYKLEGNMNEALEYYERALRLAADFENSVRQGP
# T2: human IFIT1 (Homo sapiens, UniProt P09914 1-478)
# T2 sequence: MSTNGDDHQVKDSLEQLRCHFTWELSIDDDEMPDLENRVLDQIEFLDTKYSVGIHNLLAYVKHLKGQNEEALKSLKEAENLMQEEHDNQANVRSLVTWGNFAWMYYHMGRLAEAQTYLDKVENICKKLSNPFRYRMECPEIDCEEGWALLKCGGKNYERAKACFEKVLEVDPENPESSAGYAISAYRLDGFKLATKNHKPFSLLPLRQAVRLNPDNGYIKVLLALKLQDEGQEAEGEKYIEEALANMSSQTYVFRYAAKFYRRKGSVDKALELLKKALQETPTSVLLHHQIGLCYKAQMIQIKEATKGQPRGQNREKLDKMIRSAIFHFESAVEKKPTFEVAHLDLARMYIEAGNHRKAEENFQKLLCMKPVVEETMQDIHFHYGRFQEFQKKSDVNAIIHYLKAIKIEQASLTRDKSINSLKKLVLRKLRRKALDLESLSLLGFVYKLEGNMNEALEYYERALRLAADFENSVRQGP
# How the values were obtained:
# human IFIT1 R187H = molecular target: T1, human IFIT1 R187H; assay: EMSA; 50 mM Tris pH 8.0 ([…], room temperature 20 min; […]; settings: protein: recombinant; tags: N-terminal 6xHis-SUMO (smt3) removed by Ulp1; label: none (SYBR Gold post-stain)
# human IFIT1 = molecular target: T2, human IFIT1; assay: as above; settings: protein: recombinant; tags: N-terminal 6xHis-SUMO (smt3) removed by Ulp1; label: none (SYBR Gold post-stain)
binder,measurement,setting,value
"AUAGGCGGCGCAUGAGAGAAGCCCAGACCAAUUACCUACCC (ssRNA, 5' Cap0 (m7GpppA, no 2'-O methylation; at least 95% by LC/MS)) [Cap0 VEEV TC-83 5' UTR RNA (41 nt)]",binding result,human IFIT1 R187H,no binding
same,binding result,human IFIT1,binds
